Assay in all cases: BIACORE SPR
(In SPR one partner is held on a chip, and binding of the other changes the refractive index at the surface.)

For one test, the target named is T1, Variant BAv9-1-Ig (human, UniProt P01859-1 99-326 = IgG part).
T1 construct: domain: Fc; also called Variant 9-1-Ig; BAv9-1-pIg18

Test [1] concerns the target T2, Variant BAv8-10-Ig (human, UniProt P01859-1 99-326 = IgG part).
T2 construct: domain: Fc; also called Variant 8-10-Ig; BAv8-10-PIg18

A further test concerns the target T3, Variant BAv1-12-Ig (human, UniProt P01859-1 99-326 = IgG part).
T3 construct: domain: Fc; also called Variant 1-12-Ig

A further test has as its target T4, Variant BAv3-10-Ig (human, UniProt P01859-1 99-326 = IgG part).
T4 construct: domain: Fc; also called Variant 3-10-Ig; BAv3-10-PIg18

For another test, the target named is T5, Variant BAv11-6-Ig (human, UniProt P01859-1 99-326 = IgG part).
T5 construct: domain: Fc; also called Variant 11-6-Ig; BAv11-6-PIg18
T5 sequence (P01859 other isoform, or with tags, fused parts or gaps mutant limits assumed): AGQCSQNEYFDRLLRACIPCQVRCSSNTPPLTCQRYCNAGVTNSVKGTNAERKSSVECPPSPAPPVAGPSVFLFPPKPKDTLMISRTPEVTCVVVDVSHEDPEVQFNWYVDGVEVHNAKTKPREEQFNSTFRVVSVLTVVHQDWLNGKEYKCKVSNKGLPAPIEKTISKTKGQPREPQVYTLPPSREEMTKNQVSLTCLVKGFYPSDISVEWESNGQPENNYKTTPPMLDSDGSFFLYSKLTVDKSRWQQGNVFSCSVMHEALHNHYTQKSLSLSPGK

The target in a further test is T6, Variant BAv8-9-Ig (human, UniProt P01859-1 99-326 = IgG part).
T6 construct: domain: Fc; also called Variant 8-9-Ig; BAv8-9-PIg18
T6 sequence (P01859 other isoform, or with tags, fused parts or gaps mutant limits assumed): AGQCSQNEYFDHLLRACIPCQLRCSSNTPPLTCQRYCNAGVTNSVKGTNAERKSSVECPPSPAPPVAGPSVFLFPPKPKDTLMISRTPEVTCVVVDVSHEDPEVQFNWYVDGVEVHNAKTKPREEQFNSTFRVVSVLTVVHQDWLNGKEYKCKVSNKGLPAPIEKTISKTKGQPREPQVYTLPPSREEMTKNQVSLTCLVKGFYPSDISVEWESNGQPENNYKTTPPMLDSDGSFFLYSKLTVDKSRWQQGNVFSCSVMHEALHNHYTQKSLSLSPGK

For test [2], the target named is T7, Variant 50238475-Ig (human, UniProt P01859-1 99-326 = IgG part).
T7 construct: domain: Fc; also called Parent 9; Variant 50238475-PIg18
T7 sequence (P01859 other isoform, or with tags, fused parts or gaps mutant limits assumed): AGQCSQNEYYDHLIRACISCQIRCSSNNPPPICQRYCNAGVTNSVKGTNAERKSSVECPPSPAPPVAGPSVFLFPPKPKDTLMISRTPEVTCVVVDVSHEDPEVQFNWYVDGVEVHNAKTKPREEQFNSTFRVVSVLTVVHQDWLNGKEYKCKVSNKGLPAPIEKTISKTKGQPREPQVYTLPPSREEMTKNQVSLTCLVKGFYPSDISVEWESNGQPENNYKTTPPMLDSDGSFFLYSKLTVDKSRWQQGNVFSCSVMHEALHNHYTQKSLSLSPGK

The target of another test is T8, Variant BAv9-5-Ig (human, UniProt P01859-1 99-326 = IgG part).
T8 construct: domain: Fc; also called Variant 9-5-Ig; BAv9-5-PIg18
T8 sequence (P01859 other isoform, or with tags, fused parts or gaps mutant limits assumed): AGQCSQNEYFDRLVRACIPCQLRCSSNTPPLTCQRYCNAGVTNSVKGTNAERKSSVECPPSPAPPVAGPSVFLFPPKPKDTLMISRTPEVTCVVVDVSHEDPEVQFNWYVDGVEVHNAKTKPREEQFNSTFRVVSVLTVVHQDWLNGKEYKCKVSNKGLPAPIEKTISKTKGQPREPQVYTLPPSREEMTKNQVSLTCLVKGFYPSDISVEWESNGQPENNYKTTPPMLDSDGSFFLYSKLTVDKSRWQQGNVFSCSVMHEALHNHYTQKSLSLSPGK

For the next test, the target named is T9, BAv66-Ig (human, UniProt P01859-1 99-326 = IgG part).
T9 construct: domain: Fc; also called Variant BAv66-Ig
T9 sequence (P01859 other isoform, or with tags, fused parts or gaps limits assumed): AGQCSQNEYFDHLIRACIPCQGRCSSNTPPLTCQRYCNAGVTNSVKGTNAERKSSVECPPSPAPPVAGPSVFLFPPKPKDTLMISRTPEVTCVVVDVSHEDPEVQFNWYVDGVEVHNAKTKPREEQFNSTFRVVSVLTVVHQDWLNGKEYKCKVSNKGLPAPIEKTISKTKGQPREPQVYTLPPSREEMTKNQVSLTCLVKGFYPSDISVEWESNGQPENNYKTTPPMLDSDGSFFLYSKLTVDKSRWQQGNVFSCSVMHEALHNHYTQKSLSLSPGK

Test [3] concerns the target T2, Variant BAv8-10-Ig. The protocol:
For human BAFF, cynomolgus monkey APRIL, and mouse APRIL measurements, mouse monoclonal antibody (IgG1) anti-FLAG M2 (Sigma Aldrich, Cat. No. F1804) was immobilized on CM3 sensor chips (GE Healthcare, Cat. No. BR-1005-41) according to the manufacturer's protocol. Antibody was diluted to 30 μg/ml in immobilization buffer (10 mM pH 5±0.20; GE Healthcare; GE Healthcare, Catalog No. BR-1003-51). […] Unreacted sites were quenched with 35 μl of 1M ethanolamine-HCl, pH 8.5 (GE Healthcare, GE Healthcare, Cat. No. BR-1000-50). This procedure typically yielded 3,000-4,000 response units (RU) of coupled antibody.
The fusion polypeptides were diluted in HBS-EP buffer and flowed over ligand-coated sensor chips. The variant BCMA-Ig and surrogate control fusion proteins were injected at three concentrations (1.5 nM, 15 nM, and 150 nM at 30 μl/min for 2 minutes per association phase) in a single binding cycle, followed by a 20 minute incubation with HBS-EP buffer containing no protein at the same flow rate. A similar protocol was followed for Z-TACI-Ig, except that the injections were at 4.5 nM, 45 nM, and 450 nM.
Using available information from the structures and published literature, several residues in BAv8-10 were targeted for substitution with conserved as well as non-conserved residues and their effect on BAFF and APRIL binding was assessed by BIACORE.
The source holds these as a separate data set.

The target in the next test is T10, Variant 50238494-Ig (human, UniProt P01859-1 99-326 = IgG part).
T10 construct: domain: Fc; also called Parent 11
T10 sequence (P01859 other isoform, or with tags, fused parts or gaps mutant limits assumed): as the sequence (P01859 other isoform, or with tags, fused parts or gaps limits assumed) above, with N7S, F10Y, H12R, R15H, I18V, G22L, T28N, L31A counted along it

The target of a further test is T11, Variant 50238504R-Ig (human, UniProt P01859-1 99-326 = IgG part).
T11 construct: domain: Fc; also called Parent 8
T11 sequence (P01859 other isoform, or with tags, fused parts or gaps mutant limits assumed): as the sequence (P01859 other isoform, or with tags, fused parts or gaps limits assumed) above, with F10Y, H12R, I18L, Q21H, G22V, L31A counted along it

For the next test, the target named is T12, Variant 50239698-Ig (human, UniProt P01859-1 99-326 = IgG part).
T12 construct: domain: Fc; also called Parent 5
T12 sequence (P01859 other isoform, or with tags, fused parts or gaps mutant limits assumed): as the sequence (P01859 other isoform, or with tags, fused parts or gaps limits assumed) above, with G2R, F10Y, H12R, I14L, A16S, I18V, Q21H, G22V, T28N, L31V counted along it

In a further test the target is T13, Variant 50239978-Ig (human, UniProt P01859-1 99-326 = IgG part).
T13 construct: domain: Fc; also called Parent 12
T13 sequence (P01859 other isoform, or with tags, fused parts or gaps mutant limits assumed): as the sequence (P01859 other isoform, or with tags, fused parts or gaps limits assumed) above, with G2R, Q6P, F10Y, H12S, I18V, G22L, T28N, L31V counted along it

For another test, the target named is T14, Variant 50234224-Ig (human, UniProt P01859-1 99-326 = IgG part).
T14 construct: domain: Fc; also called Parent 6
T14 sequence (P01859 other isoform, or with tags, fused parts or gaps mutant limits assumed): as the sequence (P01859 other isoform, or with tags, fused parts or gaps limits assumed) above, with E8D, F10Y, I14L, G22L, T28N counted along it

For a further test, the target named is T15, Variant 50238779-Ig (human, UniProt P01859-1 99-326 = IgG part).
T15 construct: domain: Fc; also called Parent 1
T15 sequence (P01859 other isoform, or with tags, fused parts or gaps mutant limits assumed): as the sequence (P01859 other isoform, or with tags, fused parts or gaps limits assumed) above, with G2Q, H12R, I14V, R15N, A16S, I18V, Q21R, G22L, T28N, R35H counted along it

For the next test, the target named is T16, Variant 50237844-Ig (human, UniProt P01859-1 99-326 = IgG part).
T16 construct: domain: Fc; also called Parent 7
T16 sequence (P01859 other isoform, or with tags, fused parts or gaps mutant limits assumed): as the sequence (P01859 other isoform, or with tags, fused parts or gaps limits assumed) above, with N7S, F10Y, H12R, G22L, T28N, L31V, T32I counted along it

Test [4] addresses T7, Variant 50238475-Ig. This is another data set of the same source.
The next test concerns the target T17, Variant 50240054-Ig (human, UniProt P01859-1 99-326 = IgG part).
T17 construct: domain: Fc; also called Parent 2

A further test addresses T18, Variant 50237847-Ig (human, UniProt P01859-1 99-326 = IgG part).
T18 construct: domain: Fc; also called Parent 3

In another test the target is T19, Variant 50237854-Ig (human, UniProt P01859-1 99-326 = IgG part).
T19 construct: domain: Fc; also called Parent 4
T19 sequence (P01859 other isoform, or with tags, fused parts or gaps mutant limits assumed): as the sequence (P01859 other isoform, or with tags, fused parts or gaps limits assumed) above, with Q21D, G22V, T28N, L31V counted along it

The target of a further test is T20, Variant 50239040-Ig (human, UniProt P01859-1 99-326 = IgG part).
T20 construct: domain: Fc; also called Parent 10
T20 sequence (P01859 other isoform, or with tags, fused parts or gaps mutant limits assumed): as the sequence (P01859 other isoform, or with tags, fused parts or gaps limits assumed) above, with G2R, Q6P, N7S, F10Y, A16S, I18V, G22L, L31V, N38D counted along it

Experimental findings from patent US20250042970A1 (AURINIA PHARMACEUTICALS, published 2025) are described below.

Like-named read-outs stand apart in the source and are kept apart here.

T2 sequence (P01859 other isoform, or with tags, fused parts or gaps mutant limits assumed): as the sequence (P01859 other isoform, or with tags, fused parts or gaps limits assumed) above, with I14L, G22V counted along it
T4 sequence (P01859 other isoform, or with tags, fused parts or gaps mutant limits assumed): as the sequence (P01859 other isoform, or with tags, fused parts or gaps limits assumed) above, with H12R, G22L counted along it
T1 sequence (P01859 other isoform, or with tags, fused parts or gaps mutant limits assumed): as the sequence (P01859 other isoform, or with tags, fused parts or gaps limits assumed) above, with G22L counted along it
T17 sequence (P01859 other isoform, or with tags, fused parts or gaps mutant limits assumed): as the sequence (P01859 other isoform, or with tags, fused parts or gaps limits assumed) above, with G2Q, Q6P, H12R, G22L, L31V, A39T counted along it
T3 sequence (P01859 other isoform, or with tags, fused parts or gaps mutant limits assumed): as the sequence (P01859 other isoform, or with tags, fused parts or gaps limits assumed) above, with H12R, I14V, R15N, G22L counted along it
T18 sequence (P01859 other isoform, or with tags, fused parts or gaps mutant limits assumed): as the sequence (P01859 other isoform, or with tags, fused parts or gaps limits assumed) above, with F10Y, I14L, I18V, P19S, Q21H, G22V, T28N, L31A, T32I counted along it

B1: FLAG-tagged cynomolgous APRIL (ligand, not shown: small tags and cut ends)
chain: KQKKQHSVLHLVPINATSKDDSDVTEVMWQPALRRGRGLQAQGYGVRIRDAGVYLLYSQVLFQDVTFTMGQVVSREGQGKQETLFRCIRSMPSHPDRAYNSCYSAGVFHLHQGDILSVIIPRARAKLNLSPHGTFLGFVKL
notes: FLAG-tagged, expressed with TPA signal peptide; also called cyAPRIL
On to B1, for which the Kd (commonly the free concentration of one partner at which half of the binding sites on the other are occupied at equilibrium, for simple one-to-one binding) turned out to be 0.0214 nM in the test with Variant BAv9-1-Ig; 0.0539 nM with Variant BAv8-10-Ig [1]; 0.0101 nM with Variant BAv1-12-Ig; 0.0139 nM with Variant BAv3-10-Ig; 0.0244 nM with Variant BAv11-6-Ig; 0.0226 nM in the test with Variant BAv8-9-Ig. Also, the Kd with Variant 50238475-Ig [2] is 0.0789 nM; in the test with Variant BAv9-5-Ig, 0.0284 nM; with BAv66-Ig, 62.6 nM; with Variant BAv8-10-Ig [3], 0.076 nM; with Variant 50238494-Ig, 0.012 nM; with Variant 50238504R-Ig, 0.072 nM. Also, the Kd with Variant 50239698-Ig is 0.017 nM; with Variant 50239978-Ig, 0.024 nM; with Variant 50234224-Ig it was 0.039 nM; with Variant 50238779-Ig, 0.028 nM; with Variant 50237844-Ig, 0.028 nM; with Variant 50238475-Ig [4], 0.042 nM. For the same molecule, the Kd turned out to be 0.023 nM in the test with Variant 50240054-Ig, 0.037 nM in the test with Variant 50237847-Ig, 0.059 nM with Variant 50237854-Ig and 0.054 nM with Variant 50239040-Ig.
